Data taken from doi:10.1101/2024.03.12.584703.

Target: VCAP-102 capsid (adeno-associated virus 9) (UniProt Q6JC40)
Assay: SPR

B1: His-tagged human ALPL (recombinant) (receptor)
chain: LVPEKEKDPKYWRDQAQETLKYALELQKLNTNVAKNVIMFLGDGMGVSTVTAARILKGQLHHNPGEETRLEMDKFPFVALSKTYNTNAQVPDSAGTATAYLCGVKANEGTVGVSAATERSRCNTTQGNEVTSILRWAKDAGKSVGIVTTTRVNHATPSAAYAHSADRDWYSDNEMPPEALSQGCKDIAYQLMHNIRDIDVIMGGGRKYMYPKNKTDVEYESDEKARGTRLDGLDLVDTWKSFKPRYKHSHFIWNRTELLTLDPHNVDYLLGLFEPGDMQYELNRNNVTDPSLSEMVVVAIQILRKNPKGFFLLVEGGRIDHGHHEGKAKQALHEAVEMDRAIGQAGSLTSSEDTLTVVTADHSHVFTFGGYTPRGNSIFGLAPMLSDTDKKPFTAILYGNGPGYKVVGGERENVSMVDYAHNNYQAQSAVPLRHETHGGEDVAVFSKGPMAHLLHGVHEQNYVPHVMAYAACIGANLGHCAPAS
Q: B1 was tested. Which Kd did it give?
A: 0.02 µM
